According to publication PMC9186387:
Like-named read-outs stand apart in the source and are kept apart here.

Assays:
[1] = molecular target: C. crescentus full-length DriD (C. crescentus); test: SEC
[2] = molecular target: T1, DriD(Y168A-R178A-Y192A-R204A) (Caulobacter crescentus, UniProt Q9A999 5-331, Y172A;R182A;Y196A;R208A); test: fluorescence polarization
T1 sequence: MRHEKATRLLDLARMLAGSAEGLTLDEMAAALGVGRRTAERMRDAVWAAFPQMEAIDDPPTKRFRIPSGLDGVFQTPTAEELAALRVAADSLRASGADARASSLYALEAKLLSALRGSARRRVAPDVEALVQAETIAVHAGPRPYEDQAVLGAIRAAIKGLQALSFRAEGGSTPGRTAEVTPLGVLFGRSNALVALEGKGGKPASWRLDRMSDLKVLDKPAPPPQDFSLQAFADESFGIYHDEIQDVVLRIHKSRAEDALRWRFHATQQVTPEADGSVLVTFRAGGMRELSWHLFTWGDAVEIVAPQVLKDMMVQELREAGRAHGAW

DriD(R176A-R178A) = molecular target: T2, DriD(R176A-R178A) (Caulobacter crescentus, UniProt Q9A999 5-331, R180A;R182A); test: fluorescence polarization
T2 sequence: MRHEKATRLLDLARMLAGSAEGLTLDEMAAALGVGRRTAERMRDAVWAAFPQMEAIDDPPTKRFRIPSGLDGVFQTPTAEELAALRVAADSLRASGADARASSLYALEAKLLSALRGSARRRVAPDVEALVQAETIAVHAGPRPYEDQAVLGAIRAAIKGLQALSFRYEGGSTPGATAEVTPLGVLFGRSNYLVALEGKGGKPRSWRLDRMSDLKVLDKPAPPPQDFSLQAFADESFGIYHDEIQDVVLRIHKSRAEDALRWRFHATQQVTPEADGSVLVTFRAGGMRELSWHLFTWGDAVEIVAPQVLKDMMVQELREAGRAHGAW

DriD(Y168A) = molecular target: T3, DriD(Y168A) (Caulobacter crescentus, UniProt Q9A999 5-331, Y172A); test: fluorescence polarization
T3 sequence: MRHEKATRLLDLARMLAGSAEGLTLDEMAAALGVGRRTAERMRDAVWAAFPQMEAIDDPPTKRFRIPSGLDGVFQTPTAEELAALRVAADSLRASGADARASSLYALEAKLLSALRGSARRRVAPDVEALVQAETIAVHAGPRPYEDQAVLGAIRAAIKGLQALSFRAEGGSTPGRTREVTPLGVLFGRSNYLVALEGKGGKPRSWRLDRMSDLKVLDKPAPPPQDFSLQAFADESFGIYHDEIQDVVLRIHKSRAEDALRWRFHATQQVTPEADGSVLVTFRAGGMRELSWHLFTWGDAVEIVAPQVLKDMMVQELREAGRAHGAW

[3] = molecular target: T1, DriD(Y168A-R178A-Y192A-R204A); test: fluorescence polarization; remark: listed apart in the source

Molecule: C. crescentus full-length DriD (natural protein)
- stoichiometry N [1]: 2

Molecule: TAGTCTACT (ssDNA) [9mer ssDNA (F-labelled)]
- binding result [2]: no binding
- binding result (DriD(R176A-R178A)): no binding

B1: DriD operator (optimized) (dsDNA)
DNA 1: ATACGACCGTTTCTGTCGCA
DNA 2: TGCGACAGAAACGGTCGTAT
- Kd (DriD(Y168A)): 22.3 ± 7 nM
- binding result [3]: no binding
